Reference: a protein production outcome set (Wang et al. 2014)

Assay: label from the status in PepcDB records

| Sequence | protein production |
| --- | --- |
| MKVSLGNGEMGVSAHLQPCKAGTTRFFTSNTHSSVVLQGFDQLRIEGLLCDVTLVPGDGDEIFPVHRAMMASASDYFKAMFTGGMKEQDLMCIKLHGVNKVGLKKIIDFIYTAKLSLNMDNLQDTLEAASFLQILPVLDFCKVFLISGVSLDNCVEVGRIANTYNLIEVDKYVNNFILKNFPALLSTGEFLKLPFERLAFVLSSNSLKHCTELELFKAACRWLRLEDPRMDYAAKLMKNIRFPLMTPQDLINYVQTVDFMRTDNTCVNLLLEASNYQMMPYMQPVMQSDRTAIRSDSTHLVTLGGVLRQQLVVSKELRMYDERAQEWRSLAPMDAPRYQHGIAVIGNFLYVVGGQSNYDTKGKTAVDTVFRFDPRYNKWMQVASLNEKRTFFHLSALKGHLYAVGGRSAAGELATVECYNPRMNEWSYVAKMSEPHYGHAGTVYGGLMYISGGITHDTFQNELMCFDPDTDKWMQKAPMTTVRGLHCMCTVGDKLYVIGGNHFRGTSDYDDVLSCEYYSPTLDQWTPIAAMLRGQSDVGVAVFENKIYVVGGYSWNNRCMVEIVQKYDPEKDEWHKVFDLPESLGGIRACTLTVFPPEENPGSPSRESPLSAPSDHS | failed |
| SCGDKMNKNTGALEFDSIQVNETAHLFGDTAKPACNLTINFAYPVKSTDNKLKDSLNSYFIAACFGEGYIGEKPAQVVKEYTEHYVKEYRTDLEPMYAEDEKNKESEGSIGAWYSYYKGIESHVQLYYKNLLVYRINYNEYTGGAHGIYMTTFLNMDLINLRPLKLDDIFTGDYKEALTDLLWNQLMADKKVTTHEALEDMGYGSTGDIAPTENFYLDKDGITFYYNVYDITPYAMGPVEIKIPYEMMEHMLGSNPIIGEMKSK | not failed |
| MLARALFFVVLSTATFLFLWQFPSTGAQSIPHLDKLVHFGIFFVLALTFHRAFALSAKLSLLILVCYGFLIEIAQSYAPGRSADVYDWLADASGVVAYFILHHLLSKKSR | failed |
| MVIREALLYIAMLKLEIEALQREYEDLKITKKESLHQFQEVKVEKIGEMFQVKIKSPRGENNLVNILEAFEEMGLNVAQARASCLDSFAMEAIVAPQSKDKLCSVDDLTQTLVKALVKPSVPL | failed |
| MMRIGLFLLTNLAVLVVAGIILSLFGVGSYHGAGGLNLGNLLVICFVFGMVGSLISLLMSKWMAKKTTGTEIIDPNAPRNQAEAWLLQTVAELSQRAGIQMPEVGIFPSYQSNAFATGWNKNDALVSVSTGLMERMNKDELRAVLAHEIGHVANGDMVTLALIQGVVNAFVMFFARVVGDFIDRNVFGRQDGEAPGMGYFAITIVLDIVFGILASAIVMWFSRHREYRADEAGARLAGKQAMISALLRLQAESEMPDQMPKEMKAFAIAEGKEQGFSLAALFQTHPSIEQRVAALQQLNCP | failed |
| MTRACNLYVFKNKYVSFNLLDSPNSNPKLLKISLPFNFMDEFEGLLKAVGSAPWYKLIGMVPKLQGDRVVVEMEIDRSKHLQALGTTHGGAIASVLDSAIGLNVNREVVKMGKTAVTAQLNIHYIRPVTEGKIVGVGMPMHIGSKVTVGYGEVRNEEGELVAAGTATFYIIDRRFRDLEHHHHHH | failed |
| MPIRVYTKVELALLYAPHLSENAALNNLSRWMRHNKLLMAALEEVGYYKYRHSFTPKEVRLIFRYMGEPGALEHHHHHH | not failed |
| MHESRLLLVMHWTEILAVFSFAVSGLAEARRRRLDAVGAFIVAFLTAFGGGTLRDLLLDRRPFYWVEHEQYLLALFVMSLFANRVIRLVSQLVSDRVLIVADAVGLGLFGVLGTQLALDAGVPVFVSVMMGVITAAFGGLLRDVVCNEIPMLLRDNRPYATCAFLGCWLYVGLTHTSLQPSVAVVVATLAIVAGRLATLRWNITLPR | failed |
| MVKCLSAHNKAPHVSVITPSYNSRRFIGETILSVQNQSYENWEMIIVDDCSTDQSAAKIKEIIEGDSRIRLLSLKENVGAAKARNLAIREARGRYIAFLDSDDIWLPHKLKTQLLFMEEMNIAFSYASYSLIDENGNELNREVSVPKSVDYHYLVGNTIIGCLTVMIDREKIPYVEMPSVQPEDTALWLNLLHEGHEAKGIQQVLAKYRIVANSVSSNKVRAAFRYWKLLRDQKSLNAVQSFYYFSKYAYHAYKKNKINVVGKTQLLEHHHHHH | failed |
| MDIELPGFDIERELGEGAMATVYLATQRSLQRKVALKVMAAALAADPSFAERFLREGRTLARLSHPNTVTIHDIGNVGSCYYMAMEYLPNGTLKERIQQGLDPEQGLAYVRQVAAALGYAHSQGLVHRDVKPANILFRADGTAVLSDFGIAKSIEDNTQFTQVGFAVGTPSYMSPEQARGQEIDGRADLYALGVVLYEILTGKLPYNGKDSLSTALAHLTEPLPELPIEQGRYQDILRQLLAKDPAERFPTAGALIAALDRLAPSALEATQIRPLATPQGSPRASNPPPAEPAPLPPADLGGLQPVSIQLPPVTPSAGGATPPPPPPSQAAKPPSPPPPPLPPAKPRAGGSRTPLIAAAAAAVLLAIGGGAWWLLGSGDAPSAADPAPLGQTPADKPQQQTPVADAEQDGGERPLLMPGKKTLFQRVLTKPGAAISAEAGGPPRAGAVPAFSVLYVYARKQVGGSPWLRVGASSNGEGDGWLPASAVSDWKQSLVLKFTERSGRAPVMFLNSAEQVERLLGDTRAARDTLTQAVDHKGDPQVVAVEPNDRAIPQDQFYLLPIFDSKESFDADGQPAQLLEVASIDPGGSAAAPQAPGQAGQGGASGAASDTFRTGIVLVVDTSVSMQPYIDRVREVIDGLQRQIGERGDLDKVSFGLVGFRNNTDKTPGLEYVSKTLVPLQPGNDAQRFAELSSQVRATDVSSHSFNEDAFAGIMQAVDEMDWSPYAGRVVLLVTDAGALRKNDPLGRTQMNEAEVRQAALRKGVKIYALHLRTPAGKNNHGYAEQQYRSLTADANPKIADLYIPVAGGEVNAFGNTVKEIGTVFADLVHDAGNRKPQAPRFDAAPSVASKSAAIGYAMQMEFLGRRDPVRAPQVVTAWTADRDLTNPALPAFQVCVLLSKLQLNELQQSLKLIVDAAKRTQTSPKDFFQEIASASAYMSRDPAQLVKGSNLAQSGVLGEYLEGLPYRSKSLNMTQDLWLSLSVAEQQDFIDELESKIRLYETFHNDVANWVRFGDADAGDALYRVPLSTLP | failed |
| SLWQPQTGDIIFQISRSSQSKAIQLATHSDYSHTGMLVMRNKKPYVFEAVGPVKYTPLKQWIAHGEKGKYVVRRVEGGLSVEQQQKLAQTAKRYLGKPYDFSFSWSDDRQYCSEVVWKVYQNALGMRVGEQQKLKEFDLSNPLVQAKLKERYGKNIPLEETVVSPQAVFDAPQLTTVAKEWPLFSW | not failed |
| MQAGSMSAPKQLVIIGAGEFAQIACEYFQHDSHYTVVAFSVERDFLLQHTLAELPVVAYEELEQRYPPEQYEVFVAIPATRLNRLRTRFFQDVVQRGYRCATYVSSRAFVWHNAQIGANCFIFEGNVIQPFTRIGDNCVLWSGNHIGHRTAVRDHVFIASHAVISGYCEIGQGSFIGVNATLSDKVHIAANNIIGAGALVTRHTEAERVYVGSPARAVAGRSSFDVEL | failed |
| MSQTTVVNGVNVDQLMATIEQIKAKPEIAQFKFRATNQWMGGTHNQATIKDFYGACAEDDTRKPMVFDLDEPPVLLGENRGANPVEYLLVALSGCLTTSLVAHAAARGIALRGVKSRYEGDIDLRGFLGLSEEVPVGYREIRVFFSIDADLTDGQKEELIRMAQKYSPVYNTVAKPVPVAVLLDRG | not failed |
| MDALIMAGGKGTRMGGVEKPLIKLCGRCLIDYVVSPLLKSKVNNIFIATSPNTPKTKEYINSAYKDYKNIVVIDTSGKGYIEDLNECIGYFSEPFLVVSSDLINLKSKIINSIVDYFYCIKAKTPDVEALAVMIPKEKYPNPSIDFNGLVPAGINVVSPKHGYQKEEIMVIDELIFNINTKDDLKLAEMLLKKDGL | failed |
| MQTQFQFINDCLIENQPLWRFEPFQSSIQPSLPWQETHPQLCQWLESLSPSQIETLKADPDLALDEISVFLPDLPSLLRHTQLESMALDGLALERGLDSGIPGRKLEQITAMGEAAIQSHQGEEWLEWCSGKGYLGRILTTQTNQPVTSFEYQQALCDSGQQAANEHHWKMTFIQGDAFDPQTKAVFKPTQHAVALHACGDLHVRLMEYGSEAGIAAMTISPCCYHLIQSETYQALSQSVRASELILSKHELRIPLQQTVTGGERVRRHRQQEMVFRLGFDLLTREILGVDEYQPVPSIRKSQLSDGFEALCLWVAKEKGIEINQAIDFAEFEKRAIKRFWHMERMSLVQLVFQRPLEIWLALDKVLYLEERGYRVRLAEFCPKSVTPRNILICAYKN | failed |
| MKVGIIGLGFRLGYLGYVFKAIDSSFDIVGYVDPDPAGLPGLTEKGISAGKAYGSPEELLASEKLDLLMIGSPNHMHLGHIRLGLQAGLKVFCEKPIVTTIAESIELAHLMAKFGHERLMVGLVLRYSPLYKDLRAIQAEGKLGQIVSIEASEHIEPYHGAFFMRDWRRYERYSGSFMLEKCCHDLDLYNGVVGARPERVASFGGRKSFIPANDPAREGINDLELFHRKPSGWMGSDKVFDSDADIIDYQVAIVEYENGVGMNFHTNLNVPDQFRRFAIMGSRGMAEGDFVRGYLDVHEQLTGNKIVENKYAATELSQHYGADEQMASDLLESVRTGLELPVSTLNALEAGILALAMDEARMKKTVVDLRPIWDRFDEALHARAA | failed |
| MGAAKPIFVEHSIVIDRPAQQVYDYWRKLENLPQIMSHLESVTVLDDKRSRWVAKAPLGTHVEWEAEVVNDKPGERIGWHSLPGATVDNAGSVQFESLPDDKTRVHVALSYRPPAGPLGAAVAKLFGEEPSQQIAEDLQKFKATFEGLEHHHHHH | failed |
| MRASQSAIFRRIDPFAILSFTIPLAVYLLTLAPSVTFFDSGEFITAIHSLGTAHSPGYPLFVNYGKPFTWLPFGNIAFRVNIATAVSASAACFAVYFLTHYLLKREELVPDLRFSDTFARLCGLAAALAFAFSARLWLQSNHDKPYPLVAFMTAMVFYLLVTWRERYDEGEMRPSHIYLGAFICGLATGAHQTIVLMLPAYAWLILSKNWRLAARVKELALTVAFGLMGFAIQLHMPIRAMRNPLLNWGDPRTLDLFLWNFLRKGYPVEPPDRNLALAWQQLSAFNLPREFTWVGLVLLLVGIGAFFTRRRDEIIAYLLAIVCSLLVIVGYFNTPGDLIFLTEEFFTPIYLLSAVFIGLGLFTLLRLALRNNPVEKLRTVPIKLMAGLLLLVLPSAICAMNYYENDQHENYVAFDYATNTLRSLSPGAVLFTWGDSGAFPLWYLQGVERMREDLDLLHTPHLVFDWYLDAFPHLFGRSVLRTMPERRQSSEVALKLAVAEQIVSRPVFIDFSTRYSLPFAEYGLKQRGICYQLINDGGSVLRPPDLAVWRLYASRGYTSQMGFRDLDTGKAILIYASCRMEAGEILLRMGYRQQGAEELSAAAAIAPELRAQVEQVLAAYGAR | failed |
| MLQEDLRKKAGQLFAVGFHGVVPSPEIKTLIHEYGIGGIVLFKRNIQNAMQLQLPGPMALGATHSPELAYQVGQVTGETLRFFGINMNYAPVCDINSEPLNPVIGPRSPGDDPEFVGRFASAAAQGLREQKIIPSVKHFPGHGDTAVDSHYGLPVIEKTREQLERCELIPFRRAVAEGVEAVMTAHISLPAIGDGKLPATLSADVLSILRNEMQFEGMIITDCLEMDGIRATYGTEQGAVLSLEAGSDSIMICHTYAVQVASIQKVCEAVQSGQLSASRLEEAYRRVVKLKSKFLSWDTALLTRSLDDLVTLNRKAA | failed |
| MRDALHVTADDADATDDAIPDSRETGVTGVVLAGGLSTRLGHDKAVIRLHGEQGPDLLVRTAALLEPLVDEVWISCRPGRCVTGPYLRIYDEVQGLGPFGGVMTALRAAQGPVLVLSCDLPFMERTLLERLLERRGARHPEALMTTFRQEETGFIESLVAVYEYACLPFFEDALTDGVHKLSRVIPAERREDIVYTQNEALPFFNVNYPADLEMARRIIGALLEHHHHHH | failed |
